Data set [1] deals with HeLa Kyoto. The experiment in a line: solubility change mitosis vs G1/S (difference of NP-40 vs SDS log2 ratios) (log2 ratio difference); higher = more soluble in mitosis.
Data set [2] has as its system HeLa Kyoto. Put plainly: solubility in G1/S (NP-40 vs SDS abundance) (log2 ratio); higher = more soluble. The conditions noted are these: cell cycle stage: G1/S.
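For solubility change mitosis vs G1/S (difference of NP-40 vs SDS log2 ratios) in this document: synchronized HeLa Kyoto cells (double thymidine block for G1/S, nocodazole release for mitosis), protein amounts in NP-40 versus SDS lysates quantified by mass spectrometry, three biological replicates.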
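For solubility in G1/S (NP-40 vs SDS abundance) in this document: HeLa Kyoto cells arrested at G1/S by double thymidine block, proteins quantified by TMT10plex mass spectrometry in mild NP-40 versus SDS extracts, three biological replicates.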

For “MAATDIARQVGEGCRTVPLAGHVGFDSLPDQLVNKSVSQGFCFNILCVGETGLGKSTLMDTLFNTKFEGEPATHTQPGVQLQSNTYDLQESNVRLKLTIVSTVGFGDQINKEDSYKPIVEFIDAQFEAYLQEELKIRRVLHTYHDSRIHVCLYFIAPTGHSLKSLDLVTMKKLDSKVNIIPIIAKADAISKSELTKFKIKITSELVSNGVQIYQFPTDDESVAEINGTMNAHLPFAVIGSTEELKIGNKMMRARQYPWGTVQVENEAHCDFVKLREMLIRVNMEDLREQTHTRHYELYRRCKLEEMGFKDTDPDSKPFSLQETYEAKRNEFLGELQKKEEEMRQMFVQRVKEKEAELKEAEKELHEKFDRLKKLHQDEKKKLEDKKKSLDDEVNAFKQRKTAAELLQSQGSQAGGSQTLKRDKEKKNNPWLCTE [SEPT6]”, in the data set on HeLa Kyoto [1], the “solubility change mitosis (log2)” value is -0.0909. In addition, in the data set with HeLa Kyoto [2], the “solubility in G1/S (log2)” value was 0.186.
On the same counts, the results for “MSQGPPTGESSEPEAKVLHTKRLYRAVVEAVHRLDLILCNKTAYQEVFKPENISLRNKLRELCVKLMFLHPVDYGRKAEELLWRKVYYEVIQLIKTNKKHIHSRSTLECAYRTHLVAGIGFYQHLLLYIQSHYQLELQCCIDWTHVTDPLIGCKKPVSASGKEMDWAQMACHRCLVYLGDLSRYQNELAGVDTELLAERFYYQALSVAPQIGMPFNQLGTLAGSKYYNVEAMYCYLRCIQSEVSFEGAYGNLKRLYDKAAKMYHQLKKCETRKLSPGKKRCKDIKRLLVNFMYLQSLLQPKSSSVDSELTSLCQSVLEDFNLCLFYLPSSPNLSLASEDEEEYESGYAFLPDLLIFQMVIICLMCVHSLERAGSKQYSAAIAFTLALFSHLVNHVNIRLQAELEEGENPVPAFQSDGTDEPESKEPVEKEEEPDPEPPPVTPQVGEGRKSRKFSRLSCLRRRRHPPKVGDDSDLSEGFESDSSHDSARASEGSDSGSDKSLEGGGTAFDAETDSEMNSQESRSDLEDMEEEEGTRSPTLEPPRGRSEAPDSLNGPLGPSEASIASNLQAMSTQMFQTKRCFRLAPTFSNLLLQPTTNPHTSASHRPCVNGDVDKPSEPASEEGSESEGSESSGRSCRNERSIQEKLQVLMAEGLLPAVKVFLDWLRTNPDLIIVCAQSSQSLWNRLSVLLNLLPAAGELQESGLALCPEVQDLLEGCELPDLPSSLLLPEDMALRNLPPLRAAHRRFNFDTDRPLLSTLEESVVRICCIRSFGHFIARLQGSILQFNPEVGIFVSIAQSEQESLLQQAQAQFRMAQEEARRNRLMRDMAQLRLQLEVSQLEGSLQQPKAQSAMSPYLVPDTQALCHHLPVIRQLATSGRFIVIIPRTVIDGLDLLKKEHPGARDGIRYLEAEFKKGNRYIRCQKEVGKSFERHKLKRQDADAWTLYKILDSCKQLTLAQGAGEEDPSGMVTIITGLPLDNPSVLSGPMQAALQAAAHASVDIKNVLDFYKQWKEIG [SMG5]” are -0.207 and -0.176.
On the same counts, the results for “MQVSSLNEVKIYSLSCGKSLPEWLSDRKKRALQKKDVDVRRRIELIQDFEMPTVCTTIKVSKDGQYILATGTYKPRVRCYDTYQLSLKFERCLDSEVVTFEILSDDYSKIVFLHNDRYIEFHSQSGFYYKTRIPKFGRDFSYHYPSCDLYFVGASSEVYRLNLEQGRYLNPLQTDAAENNVCDINSVHGLFATGTIEGRVECWDPRTRNRVGLLDCALNSVTADSEINSLPTISALKFNGALTMAVGTTTGQVLLYDLRSDKPLLVKDHQYGLPIKSVHFQDSLDLILSADSRIVKMWNKNSGKIFTSLEPEHDLNDVCLYPNSGMLLTANETPKMGIYYIPVLGPAPRWCSFLDNLTEELEENPESTVYDDYKFVTKKDLENLGLTHLIGSPFLRAYMHGFFMDIRLYHKVKLMVNPFAYEEYRKDKIRQKIEETRAQRVQLKKLPKVNKELALKLIEEEEEKQKSTWKKKVKSLPNILTDDRFKVMFENPDFQVDEESEEFRLLNPLVSKISEKRKKKLRLLEQQELREKEEEEEPEGKPSDAESSESSDDEKAWVEEVRKQRRLLQQEEKVKRQERLKEDQQTVLKPQFYEIKAGEEFRSFKDSATKQKLMNKTLEDRLKIEAKNGTLSVSDTTVGSKQLTFTLKRSEQQKKQQEAEKLHRQERKRLRRSAGHLKSRHKRGRSFH [NOL10]” are 0.53 and -1.88.
As for “MEAPPVTMMPVTGGTINMMEYLLQGSVLDHSLESLIHRLRGLCDNMEPETFLDHEMVFLLKGQQASPFVLRARRSMDRAGAPWHLRYLGQPEMGDKNRHALVRNCVDIATSENLTDFLMEMGFRMDHEFVAKGHLFRKGIMKIMVYKIFRILVPGNTDSTEALSLSYLVELSVVAPAGQDMVSDDMKNFAEQLKPLVHLEKIDPKRLM [MED18]”, the “solubility change mitosis (log2)” value with HeLa Kyoto [1] is -0.161. Also, the “solubility in G1/S (log2)” value in the data set on HeLa Kyoto [2] stood at 0.212.
On the same counts, the results for “MSCTIEKALADAKALVERLRDHDDAAESLIEQTTALNKRVEAMKQYQEEIQELNEVARHRPRSTLVMGIQQENRQIRELQQENKELRTSLEEHQSALELIMSKYREQMFRLLMASKKDDPGIIMKLKEQHSKIDMVHRNKSEGFFLDASRHILEAPQHGLERRHLEANQNELQAHVDQITEMAAVMRKAIEIDEQQGCKEQERIFQLEQENKGLREILQITRESFLNLRKDDASESTSLSALVTNSDLSLRKS [FGFR1OP2]” are 0.0581 and 0.209.
On the same counts, the results for “MVVPSLKLQDLIEEIRGAKTQAQEREVIQKECAHIRASFRDGDPVHRHRQLAKLLYVHMLGYPAHFGQMECLKLIASSRFTDKRVGYLGAMLLLDERHDAHLLITNSIKNDLSQGIQPVQGLALCTLSTMGSAEMCRDLAPEVEKLLLQPSPYVRKKAILTAVHMIRKVPELSSVFLPPCAQLLHERHHGILLGTITLITELCERSPAALRHFRKVVPQLVHILRTLVTMGYSTEHSISGVSDPFLQVQILRLLRILGRNHEESSETMNDLLAQVATNTDTSRNAGNAVLFETVLTIMDIRSAAGLRVLAVNILGRFLLNSDRNIRYVALTSLLRLVQSDHSAVQRHRPTVVECLRETDASLSRRALELSLALVNSSNVRAMMQELQAFLESCPPDLRADCASGILLAAERFAPTKRWHIDTILHVLTTAGTHVRDDAVANLTQLIGGAQELHAYSVRRLYNALAEDISQQPLVQVAAWCIGEYGDLLLAGNCEEIEPLQVDEEEVLALLEKVLQSHMSLPATRGYALTALMKLSTRLCGDNNRIRQVVSIYGSCLDVELQQRAVEYDTLFRKYDHMRAAILEKMPLVERDGPQADEEAKESKEAAQLSEAAPVPTEPQASQLLDLLDLLDGASGDVQHPPHLDPSPGGALVHLLDLPCVPPPPAPIPDLKVFEREGVQLNLSFIRPPENPALLLITITATNFSEGDVTHFICQAAVPKSLQLQLQAPSGNTVPARGGLPITQLFRILNPNKAPLRLKLRLTYDHFHQSVQEIFEVNNLPVESWQ [AP1G2]” are -0.154 and -0.0347.
On the same counts, the results for “MEDLEEDVRFIVDETLDFGGLSPSDSREEEDITVLVTPEKPLRRGLSHRSDPNAVAPAPQGVRLSLGPLSPEKLEEILDEANRLAAQLEQCALQDRESAGEGLGPRRVKPSPRRETFVLKDSPVRDLLPTVNSLTRSTPSPSSLTPRLRSNDRKGSVRALRATSGKRPSNMKRESPTCNLFPASKSPASSPLTRSTPPVRGRAGPSGRAAASEETRAAKLRVSGSGEFVGLTLKFLHPSPPGPPTPIRSVLAPQPSTSNSQRLPRPQGAAAKSSSQLPIPSAIPRPASRMPLTSRSVPPGRGALPPDSLSTRKGLPRPSTAGHRVRESGHKVPVSQRLNLPVMGATRSNLQPPRKVAVPGPTR [PSRC1]” are 0.803 and -0.152.
As for “MFFYLSKKISIPNNVKLQCVSWNKEQGFIACGGEDGLLKVLKLETQTDDAKLRGLAAPSNLSMNQTLEGHSGSVQVVTWNEQYQKLTTSDENGLIIVWMLYKGSWIEEMINNRNKSVVRSMSWNADGQKICIVYEDGAVIVGSVDGNRIWGKDLKGIQLSHVTWSADSKVLLFGMANGEIHIYDNQGNFMIKMKLSCLVNVTGAISIAGIHWYHGTEGYVEPDCPCLAVCFDNGRCQIMRHENDQNPVLIDTGMYVVGIQWNHMGSVLAVAGFQKAAMQDKDVNIVQFYTPFGEHLGTLKVPGKEISALSWEGGGLKIALAVDSFIYFANIRPNYKWGYCSNTVVYAYTRPDRPEYCVVFWDTKNNEKYVKYVKGLISITTCGDFCILATKADENHPQEENEMETFGATFVLVLCNSIGTPLDPKYIDIVPLFVAMTKTHVIAASKEAFYTWQYRVAKKLTALEINQITRSRKEGRERIYHVDDTPSGSMDGVLDYSKTIQGTRDPICAITASDKILIVGRESGTIQRYSLPNVGLIQKYSLNCRAYQLSLNCNSSRLAIIDISGVLTFFDLDARVTDSTGQQVVGELLKLERRDVWDMKWAKDNPDLFAMMEKTRMYVFRNLDPEEPIQTSGYICNFEDLEIKSVLLDEILKDPEHPNKDYLINFEIRSLRDSRALIEKVGIKDASQFIEDNPHPRLWRLLAEAALQKLDLYTAEQAFVRCKDYQGIKFVKRLGKLLSESMKQAEVVGYFGRFEEAERTYLEMDRRDLAIGLRLKLGDWFRVLQLLKTGSGDADDSLLEQANNAIGDYFADRQKWLNAVQYYVQGRNQERLAECYYMLEDYEGLENLAISLPENHKLLPEIAQMFVRVGMCEQAVTAFLKCSQPKAAVDTCVHLNQWNKAVELAKNHSMKEIGSLLARYASHLLEKNKTLDAIELYRKANYFFDAAKLMFKIADEEAKKGSKPLRVKKLYVLSALLIEQYHEQMKNAQRGKVKGKSSEATSALAGLLEEEVLSTTDRFTDNAWRGAEAYHFFILAQRQLYEGCVDTALKTALHLKDYEDIIPPVEIYSLLALCACASRAFGTCSKAFIKLKSLETLSSEQKQQYEDLALEIFTKHTSKDNRKPELDSLMEGGEGKLPTCVATGSPITEYQFWMCSVCKHGVLAQEISHYSFCPLCHSPVG [WDR35]”, in the data set with HeLa Kyoto [1], the “solubility change mitosis (log2)” value is -0.105. In the data set on HeLa Kyoto [2], the “solubility in G1/S (log2)” value is -0.261.
As to “MAKGRVAERSQLGAHHTTPVGDGAAGTRGLAAPGSRDHQKEKSWVEAGSARMSLLILVSIFLSAAFVMFLVYKNFPQLSEEERVNMKVPRDMDDAKALGKVLSKYKDTFYVQVLVAYFATYIFLQTFAIPGSIFLSILSGFLYPFPLALFLVCLCSGLGASFCYMLSYLVGRPVVYKYLTEKAVKWSQQVERHREHLINYIIFLRITPFLPNWFINITSPVINVPLKVFFIGTFLGVAPPSFVAIKAGTTLYQLTTAGEAVSWNSIFILMILAVLSILPAIFQKKLKQKFE [TMEM41B]”, the “solubility change mitosis (log2)” value in the data set on HeLa Kyoto [1] was found to be 0.0116. The “solubility in G1/S (log2)” value in the data set on HeLa Kyoto [2] is -0.0617.
On the same counts, the results for GFER are 0.192 and 0.733.
Regarding “MDEDGGGEGGGVPEDLSLEEREELLDIRRRKKELIDDIERLKYEIAEVMTEIDNLTSVEESKTTQRNKQIAMGRKKFNMDPKKGIQFLIENDLLQSSPEDVAQFLYKGEGLNKTVIGDYLGERDEFNIKVLQAFVELHEFADLNLVQALRQFLWSFRLPGEAQKIDRMMEAFASRYCLCNPGVFQSTDTCYVLSFAIIMLNTSLHNHNVRDKPTAERFIAMNRGINEGGDLPEELLRNLYESIKNEPFKIPEDDGNDLTHTFFNPDREGWLLKLGGGRVKTWKRRWFILTDNCLYYFEYTTDKEPRGIIPLENLSIREVEDPRKPNCFELYNPSHKGQVIKACKTEADGRVVEGNHVVYRISAPSPEEKEEWMKSIKASISRDPFYDMLATRKRRIANKK [CYTH3]”, the “solubility change mitosis (log2)” value in the data set on HeLa Kyoto [1] is -0.11. Besides, the “solubility in G1/S (log2)” value in the data set with HeLa Kyoto [2] was 0.26.

The values are drawn from the supplement of paper PMC5998384.
